Experimental findings from publication PMC6107663, “Crystal structure of human Mediator subunit MED23” (Nature Communications, 2018) are described below.

Experiment [1] concerns the target T1, MED23, endogenous, incorporated within the Mediator complex (human (endogenous in HEK-293), UniProt Q9ULK4).
T1 construct: Mediator subunit MED23, human, endogenous; source: endogenous, HEK-293 lysate
Briefly: co-IP; HEK-293 lysate (50 mM Tris/HCl pH 8, 250 mM NaCl, 0.1% Igepal CA-630) incubated with 2 µg of Nb106 overnight at 4 °C; fished with CaptureSelect C-tag Affinity Matrix; western blot. Conditions: one partner purified.

Experiment [2] addresses T2, human MED23 isoform 1, C-terminal 6xHis-tagged (MED23-6His) (human, UniProt Q9ULK4-1).
T2 construct: Mediator subunit MED23, human, isoform 1 (NM_004830.3); A rhinovirus 3C protease site stands between MED23 and the 6xHis tag; no cleavage is described; The DNA encoding isoform 1 was amplified by PCR; the words 'full length' are not used, but the model is called complete except for the last 30 residues; also called recombinant human MED23; source: SF21 cells, baculovirus (Bac-to-Bac), purified …
Briefly: crystal structure; purified MED23 mixed with Nb106 in a 1:1.2 ratio, 1 h at 4 °C; hanging drop vapor diffusion at 20 °C, 10% PEG6000, 100 mM HEPES pH 7.0; one complex in the asymmetric unit. Conditions: both partners purified.

T1 sequence (Q9ULK4 whole entry, one chain of several): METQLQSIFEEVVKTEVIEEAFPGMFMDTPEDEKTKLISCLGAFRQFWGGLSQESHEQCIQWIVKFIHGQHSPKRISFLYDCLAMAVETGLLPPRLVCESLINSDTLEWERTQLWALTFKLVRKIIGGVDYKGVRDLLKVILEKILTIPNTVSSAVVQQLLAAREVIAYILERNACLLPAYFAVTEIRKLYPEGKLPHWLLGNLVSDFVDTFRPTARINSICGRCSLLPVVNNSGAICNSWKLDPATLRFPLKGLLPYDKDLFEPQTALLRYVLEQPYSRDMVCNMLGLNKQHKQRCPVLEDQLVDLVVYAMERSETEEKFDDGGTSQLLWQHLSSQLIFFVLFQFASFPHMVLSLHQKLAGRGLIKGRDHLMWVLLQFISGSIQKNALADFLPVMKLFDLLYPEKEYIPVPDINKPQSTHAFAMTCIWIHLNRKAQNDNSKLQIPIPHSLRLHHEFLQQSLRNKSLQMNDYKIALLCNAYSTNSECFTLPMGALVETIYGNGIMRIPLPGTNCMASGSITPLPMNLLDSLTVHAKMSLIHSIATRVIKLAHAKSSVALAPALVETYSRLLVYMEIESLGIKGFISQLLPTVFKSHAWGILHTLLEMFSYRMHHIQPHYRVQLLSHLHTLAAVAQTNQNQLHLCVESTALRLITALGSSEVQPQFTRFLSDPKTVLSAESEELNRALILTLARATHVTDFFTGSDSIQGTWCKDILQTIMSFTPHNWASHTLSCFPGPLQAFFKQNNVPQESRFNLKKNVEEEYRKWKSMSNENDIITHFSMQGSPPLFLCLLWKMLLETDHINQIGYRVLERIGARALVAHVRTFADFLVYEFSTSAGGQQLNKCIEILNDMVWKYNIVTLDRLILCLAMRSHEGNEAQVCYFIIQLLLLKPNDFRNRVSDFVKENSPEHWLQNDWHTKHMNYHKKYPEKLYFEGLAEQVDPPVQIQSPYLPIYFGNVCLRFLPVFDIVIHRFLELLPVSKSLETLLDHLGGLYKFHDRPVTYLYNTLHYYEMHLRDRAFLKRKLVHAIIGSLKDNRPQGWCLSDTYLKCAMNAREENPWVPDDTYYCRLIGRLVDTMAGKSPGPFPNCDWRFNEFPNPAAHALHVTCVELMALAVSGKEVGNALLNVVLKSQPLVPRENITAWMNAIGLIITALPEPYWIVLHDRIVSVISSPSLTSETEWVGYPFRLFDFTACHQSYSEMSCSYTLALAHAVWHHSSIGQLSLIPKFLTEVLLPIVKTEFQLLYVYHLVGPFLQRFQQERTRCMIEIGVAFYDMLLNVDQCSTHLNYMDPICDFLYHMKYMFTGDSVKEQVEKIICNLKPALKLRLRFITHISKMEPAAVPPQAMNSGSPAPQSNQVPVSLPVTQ
T2 sequence (Q9ULK4 whole entry, canonical isoform): as the sequence (Q9ULK4 whole entry, one chain of several) above

B1: nanobody Nb106 (VHH)
VHH: QVQLVESGGGLVQAGASLRLSCAVSGRTGSIYTMGWFRQAPGKEREVVARTTWTPGSTKYADSVKGRVAISRDIAKNTLYLQMNNLKPEDTAVYYCAACAYGTCYYGDRAYEYWGQGTQVTVSS
notes: A related nanobody (PDB 5IMK) was used to fit the density; it is not Nb106; also called lama nanobody; source: E. coli WK6, periplasmic extract, purified (Ni-NTA, Superdex 75)
In the case of B1, the binding result in experiment [1] and in experiment [2] was “binds” in each case.
